Results from patent US20100166747A1.

Columns and labels:
[1] = target: hu IGF-1R(ECD)-C3-muIgG1Fc (human; mouse); experiment: ORIGEN competition on IGF-1R(ECD)-C3-muFc beads; competitor 1 nM Ru-IGF-1
[2] = target: hu IGF-1R(ECD)-C3-muIgG1Fc (human; mouse); experiment: ORIGEN competition on IGF-1R(ECD)-C3-muFc beads; competitor 2 nM Ru-IGF-2

| Substance | Max (%) maximum level of inhibition at 1 µM antibody [1] [%] | Max (%) maximum level of inhibition at 1 µM antibody [2] [%] |
| --- | --- | --- |
| murine anti-IGF-1R antibody 1H7 (Santa Cruz Biotechnology) | 89 | 99 |
| murine anti-IGF-1R antibody αIR3 (Calbiochem) | 91 | – |
